How the values were obtained:
[1] = biological target: Spike of live SARS-CoV-2 WT virus (SARS-CoV-2, UniProt P0DTC2 14-1273); assay: cell-based or functional assay
[2] = biological target: Spike of SARS-CoV (Urbani) on infected Vero E6 cells and live virus (SARS-CoV, UniProt P59594 14-1255); assay: immunofluorescence on infected Vero E6 cells, 1 µg/ml
[3] = biological target: T1, Spike of MERS-CoV on infected Vero E6 cells and live virus (MERS-CoV, UniProt K9N5Q8 18-1353); assay: as above
T1 sequence: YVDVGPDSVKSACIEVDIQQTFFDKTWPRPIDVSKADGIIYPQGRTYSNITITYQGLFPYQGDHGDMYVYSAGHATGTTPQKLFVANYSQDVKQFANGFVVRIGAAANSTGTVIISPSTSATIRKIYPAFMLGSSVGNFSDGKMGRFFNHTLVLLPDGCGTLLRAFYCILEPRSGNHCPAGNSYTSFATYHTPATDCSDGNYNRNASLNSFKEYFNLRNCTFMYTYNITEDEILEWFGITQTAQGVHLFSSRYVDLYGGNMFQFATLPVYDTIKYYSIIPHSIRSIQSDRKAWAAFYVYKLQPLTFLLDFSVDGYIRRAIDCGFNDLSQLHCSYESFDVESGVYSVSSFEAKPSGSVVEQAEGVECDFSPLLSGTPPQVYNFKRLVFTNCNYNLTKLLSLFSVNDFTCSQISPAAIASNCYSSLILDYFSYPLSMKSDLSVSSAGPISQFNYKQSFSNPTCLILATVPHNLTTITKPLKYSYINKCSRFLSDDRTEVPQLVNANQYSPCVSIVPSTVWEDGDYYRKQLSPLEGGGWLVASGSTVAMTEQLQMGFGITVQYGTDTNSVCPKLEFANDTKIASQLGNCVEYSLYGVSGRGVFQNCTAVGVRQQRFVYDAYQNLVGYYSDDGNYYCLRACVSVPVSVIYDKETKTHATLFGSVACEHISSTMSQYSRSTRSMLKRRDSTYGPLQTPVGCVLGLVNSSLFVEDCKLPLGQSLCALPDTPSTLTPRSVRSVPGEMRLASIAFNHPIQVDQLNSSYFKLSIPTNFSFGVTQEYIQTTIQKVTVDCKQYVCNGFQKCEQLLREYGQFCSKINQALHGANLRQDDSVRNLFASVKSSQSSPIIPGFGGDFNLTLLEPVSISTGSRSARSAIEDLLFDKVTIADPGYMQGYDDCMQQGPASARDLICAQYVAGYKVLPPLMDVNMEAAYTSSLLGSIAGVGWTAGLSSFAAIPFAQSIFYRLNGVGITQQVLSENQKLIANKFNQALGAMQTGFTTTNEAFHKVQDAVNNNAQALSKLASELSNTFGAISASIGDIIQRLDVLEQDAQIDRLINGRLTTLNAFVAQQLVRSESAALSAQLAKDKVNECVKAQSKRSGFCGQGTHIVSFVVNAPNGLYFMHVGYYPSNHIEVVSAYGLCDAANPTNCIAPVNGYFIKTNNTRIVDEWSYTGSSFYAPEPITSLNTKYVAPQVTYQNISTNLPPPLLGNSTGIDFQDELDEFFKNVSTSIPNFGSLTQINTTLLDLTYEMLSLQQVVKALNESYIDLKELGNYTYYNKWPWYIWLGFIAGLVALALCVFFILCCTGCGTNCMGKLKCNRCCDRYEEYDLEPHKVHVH

[4] = biological target: T2, SARS-CoV-2 S1 (40591-V08H3, Sino Biological) (SARS-CoV-2, UniProt P0DTC2 16-685); assay: ELISA, hmAb at 10 and 1 ug/ml in duplicate; AUC
T2 construct: domain: S1

[5] = biological target: T3, SARS-CoV-2 S2 (40590-V08B, Sino Biological) (SARS-CoV-2, UniProt P0DTC2 686-1213); assay: ELISA, hmAb at 10 and 1 ug/ml in duplicate; AUC
T3 construct: domain: S2

[6] = biological target: T4, SARS-CoV-2 S1+S2 (40589-V08B1, Sino Biological) (SARS-CoV-2, UniProt P0DTC2 16-1213); assay: ELISA, hmAb at 10 and 1 ug/ml in duplicate; AUC
[7] = biological target: T2, SARS-CoV-2 S1 (40591-V08H3, Sino …); assay: ELISA on coated protein, anti-human IgG-HRP; AUC of the OD
[8] = biological target: T3, SARS-CoV-2 S2 (40590-V08B, Sino …); assay: as above
[9] = biological target: T4, SARS-CoV-2 S1+S2 (40589-V08B1, Sino …); assay: as above
[10] = biological target: Spike of live SARS-CoV-2 WT virus (SARS-CoV-2, UniProt P0DTC2 14-1273); assay: cell-based or functional assay; remark: listed apart in the source
[11] = biological target: SARS-CoV-2 Wuhan-Hu-1 Spike protein (NR-53524 BEI Resources) (SARS-CoV-2, UniProt P0DTC2 16-1213); assay: cell-based or functional assay
[12] = biological target: T5, MERS-CoV S2 (Sino Biological, 40070-V08) (MERS-CoV, UniProt K9N5Q8 726-1296); assay: ELISA, mAb at 5, 0.5 and 0.05 ug/ml, without and with 8M urea; AUC heat map
T5 sequence: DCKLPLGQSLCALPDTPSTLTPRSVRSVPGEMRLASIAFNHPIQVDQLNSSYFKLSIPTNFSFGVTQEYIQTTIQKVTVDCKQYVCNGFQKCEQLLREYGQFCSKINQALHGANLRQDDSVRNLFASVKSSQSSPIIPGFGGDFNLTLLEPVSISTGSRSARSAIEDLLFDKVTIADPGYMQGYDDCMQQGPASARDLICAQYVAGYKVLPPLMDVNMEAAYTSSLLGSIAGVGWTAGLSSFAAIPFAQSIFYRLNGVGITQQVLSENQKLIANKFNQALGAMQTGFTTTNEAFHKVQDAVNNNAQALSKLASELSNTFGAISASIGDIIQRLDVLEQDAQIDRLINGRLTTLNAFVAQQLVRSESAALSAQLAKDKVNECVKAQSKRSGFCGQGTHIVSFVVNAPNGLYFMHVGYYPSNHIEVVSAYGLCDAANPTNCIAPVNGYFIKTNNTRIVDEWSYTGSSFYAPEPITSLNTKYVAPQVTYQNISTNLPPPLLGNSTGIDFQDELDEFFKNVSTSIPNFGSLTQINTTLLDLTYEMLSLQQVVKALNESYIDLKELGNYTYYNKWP

[13] = biological target: T6, OC43 S2 (40607-V08B1, Sino Biological) (HCoV-OC43, UniProt P36334 759-1297); assay: as above
T6 construct: domain: S2
T6 sequence: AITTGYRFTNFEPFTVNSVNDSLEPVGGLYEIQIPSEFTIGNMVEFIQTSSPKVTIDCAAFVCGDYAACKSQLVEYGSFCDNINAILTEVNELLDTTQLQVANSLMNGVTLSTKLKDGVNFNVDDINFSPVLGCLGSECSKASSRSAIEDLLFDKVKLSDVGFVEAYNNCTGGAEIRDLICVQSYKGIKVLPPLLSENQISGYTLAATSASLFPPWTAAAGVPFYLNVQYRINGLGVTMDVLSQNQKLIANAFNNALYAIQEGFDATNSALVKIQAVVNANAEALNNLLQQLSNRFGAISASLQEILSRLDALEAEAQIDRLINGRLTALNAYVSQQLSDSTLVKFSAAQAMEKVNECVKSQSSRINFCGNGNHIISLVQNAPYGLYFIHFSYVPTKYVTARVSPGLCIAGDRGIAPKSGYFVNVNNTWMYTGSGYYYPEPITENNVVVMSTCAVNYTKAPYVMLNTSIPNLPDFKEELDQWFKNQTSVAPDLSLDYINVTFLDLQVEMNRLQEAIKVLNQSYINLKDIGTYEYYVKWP

[14] = biological target: T7, HKU1 S2 (40021-V08B, Sino Biological) (HCoV-HKU1, UniProt Q5MQD0 761-1300); assay: as above
T7 construct: domain: S2
T7 sequence: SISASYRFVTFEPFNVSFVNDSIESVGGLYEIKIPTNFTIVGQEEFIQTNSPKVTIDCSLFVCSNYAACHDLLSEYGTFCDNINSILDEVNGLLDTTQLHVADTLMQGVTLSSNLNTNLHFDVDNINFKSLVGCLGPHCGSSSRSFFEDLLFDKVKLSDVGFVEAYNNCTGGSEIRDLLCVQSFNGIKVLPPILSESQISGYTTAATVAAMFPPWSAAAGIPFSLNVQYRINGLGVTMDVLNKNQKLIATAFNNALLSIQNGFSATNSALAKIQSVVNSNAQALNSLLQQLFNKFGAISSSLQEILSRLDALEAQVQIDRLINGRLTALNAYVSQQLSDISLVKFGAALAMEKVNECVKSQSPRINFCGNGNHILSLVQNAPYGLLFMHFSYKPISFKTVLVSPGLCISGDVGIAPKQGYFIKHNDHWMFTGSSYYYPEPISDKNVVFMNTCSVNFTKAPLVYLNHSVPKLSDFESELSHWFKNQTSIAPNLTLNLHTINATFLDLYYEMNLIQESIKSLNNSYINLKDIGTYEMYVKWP

[15] = biological target: T5, MERS-CoV S2 (Sino Biological, 40070-V08); assay: SPR, as far as told; target printed as MERS-CoV SH

B1: 1242C6 (antibody, V domains shown)
VH: EVQLVQSGAEVKKPGASVKVSCKASGFTFSDYYMHWVRQAPRQGLEWMGLINPSGSGTAYAQNFQGRVTLTRDTSTSTLYMEMGSLTSDDTAVYYCARMDSSGSYDHWGQGTLVTVSS
VL: DIVMTQSPGTLSLSPGDRATLSCRASQTIRISYLAWYQQKPGQAPRLLVYGPSIRATGIPDRFSASGSGTDFTLTISRLEPEDFAVYYCQHYGSSPPRYTFGQGTKLEIK
notes: Recombinant human IgG1
- Neutralization IC50 (µg/ml), Live Virus WT [1]: 5.68 µg/mL
- binding result [2]: binds
- binding result [3]: binds
- Binding AUC [4]: 0.8
- binding result [4]: no binding (tested: 10 ug/ml)
- Binding AUC [5]: 26.7
- Binding AUC [6]: 25.6
- Binding AUC [7]: 0.8
- Binding AUC [8]: 26.7
- Binding AUC [9]: 25.6

B2: CV3-25 (antibody, V domains shown)
VH: QVQLVESGAEVKKPGESLKISCKGSGYTFTRYWIGWVRQMPGKGLEWMGIIYPGDSDTRYSPSFQGHVTISADKSISTAYLQWNSLKASDTAMYYCARLPQYCSNGVCQRWFDPWGQGTLVTVSS
VL: EIVLTQSPSSVSASVGDRVTITCRASQGISSWLAWYQQKPGKAPKLLIYAASSLQSGVPSRFSGSGSGTDFTLTISSLQPEDFATYYCQQGNSFPYTFGQGTNLEIK
- Neutralization IC50 (µg/ml), Live Virus WT [10]: 12.3 µg/mL

B3: 1213H7 (antibody, V domains shown)
VH: QVQLQQSGPEVKKPGTSVKVSCRASGFTFSSSAMQWVRQARGQRLEWIGWIVVGSGNANYAQKFQERVTITRDLSTRTAYMELSSLRSEDTAVYYCAAPYCSGGTCLDGFDIWGQGTMVTVSS
VL: EIVLTQSPGTLSLSPGERATLSCRASQSVSRNYLGWYQQKPGQAPRLLIYGASSRATGIPDRFSGSGSGTDFTLTISRLEPEDFAVYYCQQYGSSPWTFGQGTKVEIK
- ADCP activity, fold over isotype control [11]: ~8 fold
- binding result [12]: no binding (tested: 5 ug/ml)
- binding result [13]: no binding (tested: 5 ug/ml)
- binding result [14]: no binding (tested: 5 ug/ml)

B4: S2P6 (antibody, V domains shown)
VH: EVQLVQSGAEVKKPGASVKVSCKASGYTFTSQYMHWVRQAPGQGLEWIGIINPSGVHTSYAQKFQGRVTLTRDTSTSTLYMELSSLRSEDTAVYYCARGSPKGAFDYWGQGTLVTVSS
VL: not shown
- Kd [15]: 8.5 nM

— US20240270828A1 (UAB RESEARCH FOUNDATION, published 2024)
